B1: anti-IL-6 antibody, heavy chain A49T, light chain WT (antibody, IgG1, V domains shown)
VH: EVQLVESGGGLVQPGGSLRLSCAASGFTFSPFAMSWVRQAPGKGLEWVTKISPGGSWTYYSDTVTGRFTFSLDTSKSTAYLQMNSLRAEDTAVYYCARQLWGYYALDIWGQGTLVTVSS
VL: DIQLTQSPSSLSASVGDRVTITCSASISVSYMYWYQQKPGKAPKLLIYDMSNLASGVPSRFSGSGSGTDFTLTISSLQPEDFATYYCMQWSGYPYTFGQGTKVEIK
notes: Full IgG1 tested; V domains derived as in m2
B2: anti-IL-6 antibody, heavy chain S30W, light chain WT (antibody, IgG1, V domains shown)
VH: B1 VH with S30W, T49A
VL: B1 VL
notes: as for B1
B3: anti-IL-6 antibody, heavy chain D62F, light chain WT (antibody, IgG1, V domains shown)
VH: B1 VH with T49A, D62F
VL: B1 VL
notes: as for B1
B4: anti-IL-6 antibody, heavy chain T58R, light chain WT (antibody, IgG1, V domains shown)
VH: B1 VH with T49A, T58R
VL: B1 VL
notes: as for B1
B5: anti-IL-6 antibody, heavy chain Q99A, light chain WT (antibody, IgG1, V domains shown)
VH: B1 VH with T49A, Q99A
VL: B1 VL
notes: as for B1
B6: anti-IL-6 antibody, heavy chain A105Q, light chain WT (antibody, IgG1, V domains shown)
VH: B1 VH with T49A, A105Q
VL: B1 VL
notes: as for B1
B7: anti-IL-6 antibody, heavy chain S30Y, light chain WT (antibody, IgG1, V domains shown)
VH: B1 VH with S30Y, T49A
VL: B1 VL
notes: as for B1
B8: anti-IL-6 antibody, heavy chain G102D, light chain WT (antibody, IgG1, V domains shown)
VH: B1 VH with T49A, G102D
VL: B1 VL
notes: as for B1
B9: anti-IL-6 antibody, heavy chain F27R, light chain WT (antibody, IgG1, V domains shown)
VH: B1 VH with F27R, T49A
VL: B1 VL
notes: as for B1
B10: anti-IL-6 antibody, heavy chain S61A, light chain WT (antibody, IgG1, V domains shown)
VH: B1 VH with T49A, S61A
VL: B1 VL
notes: as for B1
B11: anti-IL-6 antibody, heavy chain S35H, light chain WT (antibody, IgG1, V domains shown)
VH: B1 VH with S35H, T49A
VL: B1 VL
notes: as for B1
B12: anti-IL-6 antibody, heavy chain R98G, light chain WT (antibody, IgG1, V domains shown)
VH: B1 VH with T49A, R98G
VL: B1 VL
notes: as for B1
B13: anti-IL-6 antibody, heavy chain S56R, light chain WT (antibody, IgG1, V domains shown)
VH: B1 VH with T49A, S56R
VL: B1 VL
notes: as for B1
B14: anti-IL-6 antibody, heavy chain T28E, light chain WT (antibody, IgG1, V domains shown)
VH: B1 VH with T28E, T49A
VL: B1 VL
notes: as for B1
B15: anti-IL-6 antibody, heavy chain T58V, light chain WT (antibody, IgG1, V domains shown)
VH: B1 VH with T49A, T58V
VL: B1 VL
notes: as for B1
B16: anti-IL-6 antibody, heavy chain F27S, light chain WT (antibody, IgG1, V domains shown)
VH: B1 VH with F27S, T49A
VL: B1 VL
notes: as for B1
B17: anti-IL-6 antibody, heavy chain S56H, light chain WT (antibody, IgG1, V domains shown)
VH: B1 VH with T49A, S56H
VL: B1 VL
notes: as for B1
B18: anti-IL-6 antibody, heavy chain Q99H, light chain WT (antibody, IgG1, V domains shown)
VH: B1 VH with T49A, Q99H
VL: B1 VL
notes: as for B1
B19: anti-IL-6 antibody, heavy chain A97V, light chain WT (antibody, IgG1, V domains shown)
VH: B1 VH with T49A, A97V
VL: B1 VL
notes: as for B1
B20: anti-IL-6 antibody, heavy chain T28A, light chain WT (antibody, IgG1, V domains shown)
VH: B1 VH with T28A, T49A
VL: B1 VL
notes: as for B1
B21: anti-IL-6 antibody, heavy chain T28K, light chain WT (antibody, IgG1, V domains shown)
VH: B1 VH with T28K, T49A
VL: B1 VL
notes: as for B1
B22: anti-IL-6 antibody, heavy chain T58K, light chain WT (antibody, IgG1, V domains shown)
VH: B1 VH with T49A, T58K
VL: B1 VL
notes: as for B1
B23: anti-IL-6 antibody, heavy chain S35Q, light chain WT (antibody, IgG1, V domains shown)
VH: B1 VH with S35Q, T49A
VL: B1 VL
notes: as for B1
B24: anti-IL-6 antibody, heavy chain F27P, light chain WT (antibody, IgG1, V domains shown)
VH: B1 VH with F27P, T49A
VL: B1 VL
notes: as for B1
B25: anti-IL-6 antibody, heavy chain F27V, light chain WT (antibody, IgG1, V domains shown)
VH: B1 VH with F27V, T49A
VL: B1 VL
notes: as for B1
B26: anti-IL-6 antibody, heavy chain S61R, light chain WT (antibody, IgG1, V domains shown)
VH: B1 VH with T49A, S61R
VL: B1 VL
notes: as for B1
B27: anti-IL-6 antibody, heavy chain L106I, light chain WT (antibody, IgG1, V domains shown)
VH: B1 VH with T49A, L106I
VL: B1 VL
notes: as for B1
B28: anti-IL-6 antibody, heavy chain A105H, light chain WT (antibody, IgG1, V domains shown)
VH: B1 VH with T49A, A105H
VL: B1 VL
notes: as for B1
B29: anti-IL-6 antibody, heavy chain T28Y, light chain WT (antibody, IgG1, V domains shown)
VH: B1 VH with T28Y, T49A
VL: B1 VL
notes: as for B1
B30: anti-IL-6 antibody, heavy chain F27G, light chain WT (antibody, IgG1, V domains shown)
VH: B1 VH with F27G, T49A
VL: B1 VL
notes: as for B1
B31: anti-IL-6 antibody, heavy chain T63D, light chain WT (antibody, IgG1, V domains shown)
VH: B1 VH with T49A, T63D
VL: B1 VL
notes: as for B1
B32: anti-IL-6 antibody, heavy chain S30G, light chain WT (antibody, IgG1, V domains shown)
VH: B1 VH with S30G, T49A
VL: B1 VL
notes: Full IgG1 tested; V domains derived as in m2; also called S30G (heavy chain)

Substitutions are numbered along the chain they refer to. Names and notes keep the numbering of the source.

T1 sequence (P05231 30-212 limits assumed): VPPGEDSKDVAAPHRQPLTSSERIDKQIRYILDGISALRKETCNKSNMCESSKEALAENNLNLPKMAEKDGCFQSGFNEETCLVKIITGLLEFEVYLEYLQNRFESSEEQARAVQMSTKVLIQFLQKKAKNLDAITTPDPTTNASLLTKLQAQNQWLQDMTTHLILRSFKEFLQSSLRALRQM

This experiment has as its target T1, recombinant human IL-6 (human, UniProt P05231 30-212).
T1 construct: Flowed in solution over the captured antibodies
Briefly: SPR (Biacore), supernatant IgG on Protein A, 25 C. The protocol: Antibodies were captured on a Protein A chip (GE) by injecting 1:20 dilution of cell supernatant at 10 μL/min for 60 seconds. […] The sensor chip was regenerated by a 60 seconds injection of 10 mM Glycine pH 1.7 at flow rate of 50 μL/min. […] For this setup, 1 μg/mL of purified antibody was injected over a Protein A chip at 10 μL/min for 25-28 seconds. Data analysis for supernatant and purified samples were performed using BIAevaluation software (GE). All sensorgrams were double reference subtracted and fit using a 1:1 Langmuir binding model.
On the technique in general: Surface plasmon resonance follows binding to a sensor surface in real time, without labels.
Consider B1, for which the Kd (usually the free concentration of one partner at which half of the binding sites on the other are occupied at equilibrium, for simple one-to-one binding) turned out to be 0.337 nM; the koff – broadly, a measure of how fast the partners let go of each other – worked out at 0.000151 s⁻¹; the kon (in general, the second-order rate constant of association) was found to be 448000 M⁻¹ s⁻¹.
For B2 the same measures were 0.376 nM, 0.000157 s⁻¹ and 417000 M⁻¹ s⁻¹.
Regarding B3, the Kd was found to be 0.35 nM, the koff came out at 0.000147 s⁻¹ and the kon was determined as 420000 M⁻¹ s⁻¹.
For B4 the same measures were 0.426 nM, 0.000152 s⁻¹ and 357000 M⁻¹ s⁻¹.
In the same order, the values of B5 are 2 nM, 0.000737 s⁻¹ and 368000 M⁻¹ s⁻¹.
On to B6, for which the Kd came to 1.04 nM, the off-rate (koff) turned out to be 0.000493 s⁻¹ and the kon worked out at 474000 M⁻¹ s⁻¹.
For B7 the same measures were 0.334 nM, 0.000122 s⁻¹ and 365000 M⁻¹ s⁻¹.
For B8 the same measures were 1.33 nM, 0.0006 s⁻¹ and 452000 M⁻¹ s⁻¹.
In the same order, the values of B9 are 0.415 nM, 0.000209 s⁻¹ and 503000 M⁻¹ s⁻¹.
In the case of B10, the Kd was 0.394 nM, the dissociation rate constant (koff) was 0.000149 s⁻¹ and the kon came to 379000 M⁻¹ s⁻¹.
In the same order, the values of B11 are 0.379 nM, 0.000132 s⁻¹ and 348000 M⁻¹ s⁻¹.
In the same order, the values of B12 are 1.42 nM, 0.000251 s⁻¹ and 176000 M⁻¹ s⁻¹.
In the same order, the values of B13 are 0.567 nM, 0.000155 s⁻¹ and 273000 M⁻¹ s⁻¹.
Take B14: the Kd was 0.347 nM, the koff was determined as 0.000163 s⁻¹ and the kon was determined as 469000 M⁻¹ s⁻¹.
For B15 the same measures were 0.226 nM, 0.000181 s⁻¹ and 803000 M⁻¹ s⁻¹.
In the same order, the values of B16 are 0.278 nM, 0.000203 s⁻¹ and 731000 M⁻¹ s⁻¹.
Turning to B17, the Kd turned out to be 0.452 nM, the koff stood at 0.000161 s⁻¹ and the kon worked out at 356000 M⁻¹ s⁻¹.
B18: the Kd is 1.94 nM, the koff was determined as 0.00105 s⁻¹ and the kon was 539000 M⁻¹ s⁻¹.
For B19 the same measures were 0.574 nM, 0.000179 s⁻¹ and 311000 M⁻¹ s⁻¹.
In the same order, the values of B20 are 0.354 nM, 0.000139 s⁻¹ and 393000 M⁻¹ s⁻¹.
In the same order, the values of B21 are 0.37 nM, 0.000143 s⁻¹ and 386000 M⁻¹ s⁻¹.
Take B22: the Kd came to 0.39 nM, the koff turned out to be 0.000179 s⁻¹ and the kon turned out to be 460000 M⁻¹ s⁻¹.
In the same order, the values of B23 are 0.346 nM, 0.00013 s⁻¹ and 375000 M⁻¹ s⁻¹.
In the same order, the values of B24 are 0.344 nM, 0.000196 s⁻¹ and 570000 M⁻¹ s⁻¹.
As for B25, the dissociation constant Kd was found to be 0.442 nM, the koff came to 0.000208 s⁻¹ and the kon stood at 470000 M⁻¹ s⁻¹.
In the same order, the values of B26 are 0.467 nM, 0.000162 s⁻¹ and 348000 M⁻¹ s⁻¹.
In the same order, the values of B27 are 0.279 nM, 0.000134 s⁻¹ and 479000 M⁻¹ s⁻¹.
In the same order, the values of B28 are 1.79 nM, 0.000723 s⁻¹ and 404000 M⁻¹ s⁻¹.
In the case of B29, the Kd is 0.412 nM, the koff came out at 0.000137 s⁻¹ and the kon was determined as 332000 M⁻¹ s⁻¹.
In the same order, the values of B30 are 0.24 nM, 0.000206 s⁻¹ and 856000 M⁻¹ s⁻¹.
As to B31, the Kd worked out at 0.423 nM, the koff was found to be 0.000174 s⁻¹ and the kon came out at 410000 M⁻¹ s⁻¹.
Consider B32, for which the Kd is 0.333 nM, the koff was determined as 0.000132 s⁻¹ and the kon amounted to 398000 M⁻¹ s⁻¹.

(Values after patent publication US20240209076A1 (KODIAK SCIENCES, published 2024).)
